Molecular target: T1, IL-27RA on NCI-H2228 lung cancer cells (human, UniProt Q6UWB1 33-636)
T1 sequence: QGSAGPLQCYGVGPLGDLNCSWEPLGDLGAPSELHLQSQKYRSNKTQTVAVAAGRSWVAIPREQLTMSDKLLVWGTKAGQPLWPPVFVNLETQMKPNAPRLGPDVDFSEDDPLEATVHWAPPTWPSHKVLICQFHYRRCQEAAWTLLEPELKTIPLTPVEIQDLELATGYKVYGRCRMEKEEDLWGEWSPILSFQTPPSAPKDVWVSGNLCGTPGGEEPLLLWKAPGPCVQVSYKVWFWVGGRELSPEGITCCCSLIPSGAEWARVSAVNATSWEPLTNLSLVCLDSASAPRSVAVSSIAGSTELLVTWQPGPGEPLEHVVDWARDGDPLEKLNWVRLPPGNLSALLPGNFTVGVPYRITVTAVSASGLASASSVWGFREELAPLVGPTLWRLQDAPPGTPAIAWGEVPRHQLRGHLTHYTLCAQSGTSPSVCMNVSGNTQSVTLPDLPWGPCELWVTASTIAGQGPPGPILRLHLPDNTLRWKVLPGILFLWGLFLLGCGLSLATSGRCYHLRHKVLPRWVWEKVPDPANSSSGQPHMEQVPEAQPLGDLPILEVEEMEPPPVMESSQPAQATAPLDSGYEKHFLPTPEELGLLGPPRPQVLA
Assay: cell-based or functional assay

EC50 of STAT1 phosphorylation (pSTAT1-PE GeoMean, flow cytometry) in NCI-H2228 lung cancer cells cultured with graded concentrations of IL-27: 5.3 ng/mL
B1: recombinant human IL-27 (ligand)
chain 1: RKGPPAALTLPRVQCRASRYPIAVDCSWTLPPAPNSTSPVSFIATYRLGMAARGHSWPCLQQTPTSTSCTITDVQLFSMAPYVLNVTAVHPWGSSSSFVPFITEHIIKPDPPEGVRLSPLAERQLQVQWEPPGSWPFPEIFSLKYWIRYKRQGAARFHRVGPIEATSFILRAVRPRARYYVQVAAQDLTDYGELSDWSLPATATMSLGK
chain 2: FPRPPGRPQLSLQELRREFTVSLHLARKLLSEVRGQAHRFAESHLPGVNLYLLPLGEQLPDVSLTFQAWRRLSDPERLCFISTTLQPFHALLGGLGTQGRWTNMERMQLWAMRLDLRDLQRHLRFQVLAAGFNLPEEEEEEEEEEEEERKGLLPGALGSALQGPAQVSWPQLLSTYRLLHSLELVLSRAVRELLLLSKAGHSVWPLGFPTLSPQP

Reference: patent US20220389089A1 (SURFACE ONCOLOGY, published 2022)
